Earlier results on one substance are cited in paper PMC8985225.

Usually Kd stands for the constant that tells how readily two partners part at equilibrium.

Where only a bound is given, the exact number is not on record here.

For this series, the target named is CaMKII kinase domain (Caenorhabditis elegans) (UniProt O62305).

On to “CaMKII kinase domain (from UniProt O62305)”, for which the dissociation constant (Kd) was > 100 µM.
